Data reported in patent publication US20140243272A1 (ALPHABETA, published 2014).

B1: AAAAAAAAAA, poly-alanine 10-mer peptide, spot 18 (peptide)
peptide: AAAAAAAAAA
notes: also called decamer of A
B2: Recombinant human CTproSP-C^L188Q, S-tagged (other)
chain: HMSQKHTEMVLEMSIGAPEAQQRLALSEHLVTTATFSIGSTGLVVYDYQQLLIAYKPAPGTCCYIMKIAPESIPSLEALNRKVHNFQMECSLQAKPAVPTSKLGQAEGRDAGSAPSGGDPAFLGMAVNTQCGEVPLYYI
notes: also called mutant human CTproSP-C^L188Q; not shown: S-tag left after thrombin cleavage
B3: Recombinant human CTproSP-CBrichos (human proSP-C^94-197), S-tagged (other)
chain: FSIGSTGLVVYDYQQLLIAYKPAPGTCCYIMKIAPESIPSLEALNRKVHNFQMECSLQAKPAVPTSKLGQAEGRDAGSAPSGGDPAFLGMAVNTLCGEVPLYYI
notes: also called Brichos domain of human CTproSP-C; Brichos region; not shown: S-tag and vector residues from pET-32c left after thrombin cleavage
B4: cellulose-bound decamer of P (peptide)
peptide: PPPPPPPPPP
notes: also called P counterpart
B5: cellulose-bound decamer of Y (peptide)
peptide: YYYYYYYYYY
notes: also called stretch of Y
B6: cellulose-bound decamer of G (peptide)
peptide: GGGGGGGGGG
notes: also called G counterpart
B7: S-tagged recombinant human CTproSP-C (proSP-C^59-197) (other)
chain: GSGMKETAAAKFERQHMDSPDLGTDDDDKAMAHMSQKHTEMVLEMSIGAPEAQQRLALSEHLVTTATFSIGSTGLVVYDYQQLLIAYKPAPGTCCYIMKIAPESIPSLEALTRKVHNFQMECSLQAKPAVPTSKLGQAEGRDAGSAPSGGDPAFLGMAVSTLCGEVPLYYI
notes: SEC and ESI-MS show mainly trimers and oligomers of trimers; also called CTC; C-terminal domain of lung surfactant protein C precursor
B8: cellulose-bound decamer of W (peptide)
peptide: WWWWWWWWWW
notes: also called W counterpart
B9: cellulose-bound decamer of F (peptide)
peptide: FFFFFFFFFF
notes: also called stretch of F
B10: LLLLLLLLLL, poly-leucine 10-mer peptide, spot 17 (peptide)
peptide: LLLLLLLLLL
notes: also called decamer of L
B11: cellulose-bound decamer of I (peptide)
peptide: IIIIIIIIII
notes: also called stretch of I
B12: cellulose-bound decamer of M (peptide)
peptide: MMMMMMMMMM
notes: also called stretch of M

Assays:
[1] = molecular target: T1, ER-luminal part of the human Bri protein (human, UniProt Q9Y287 90-236, limits assumed); test: cellulose-bound decamer SPOT membrane, control
T1 construct: domain: ER-luminal part
T1 sequence (looked up): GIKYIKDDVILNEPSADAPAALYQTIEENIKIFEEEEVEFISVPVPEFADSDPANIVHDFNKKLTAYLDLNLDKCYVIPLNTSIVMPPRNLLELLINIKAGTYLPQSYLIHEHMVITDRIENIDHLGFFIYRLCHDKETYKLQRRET
Description: (§1) After blocking with 2% BSA for one hour and washing with T-TBS 4×1 h, the membranes were incubated with HRP-conjugated S-protein (Novagen, Madison, Wis.) diluted 1:5000.

[2] = molecular target: T2, LVVVVIVGAL (positions 22-31 in SP-C^I23V), spots 21 and 23 (human); test: peptide SPOT membrane, S-protein-HRP, ECL
T2 construct: also called spot 21; spot 23
T2 peptide: LVVVVIVGAL
Description: (§2) SPOT membranes (Frank R, J Immunol Meth, 267:13-26, 2002), containing 10-residue fragments derived from SP-C(SP-C^I23V) were purchased from Sigma Genosys (Cambridge, England). […] The membranes were then blocked with 2% BSA in TBS for one hour. After washing with T-TBS 4×1 h, the membranes were incubated with HRP-conjugated S-protein (Novagen, Madison, Wis.) diluted 1:5000 in T-TBS containing 2% BSA. The membranes were then washed again with T-TBS 4×1 h and binding was visualized by ECL according to the manufacturer's instructions.

[3] = molecular target: B10; test: cellulose-bound decamer SPOT membrane, control
Description: as §1

[4] = molecular target: B1; test: cellulose-bound decamer SPOT membrane, control
Description: as §1

[5] = molecular target: B11; test: cellulose-bound decamer SPOT membrane, control
Description: as §1

[6] = molecular target: B9; test: cellulose-bound decamer SPOT membrane, control
Description: as §1

[7] = molecular target: B12; test: cellulose-bound decamer SPOT membrane, control
Description: as §1

[8] = molecular target: B5; test: cellulose-bound decamer SPOT membrane, control
Description: as §1

[9] = molecular target: B8; test: cellulose-bound decamer SPOT membrane, control
Description: as §1

[10] = molecular target: B6; test: cellulose-bound decamer SPOT membrane, control
Description: as §1

[11] = molecular target: B4; test: cellulose-bound decamer SPOT membrane, control
Description: as §1

[12] = molecular target: B10; test: cellulose-bound decamer SPOT membrane
Description: as §1

[13] = molecular target: B11; test: cellulose-bound decamer SPOT membrane
Description: as §1

[14] = molecular target: B9; test: cellulose-bound decamer SPOT membrane
Description: as §1

[15] = molecular target: B12; test: cellulose-bound decamer SPOT membrane
Description: as §1

[16] = molecular target: B5; test: cellulose-bound decamer SPOT membrane
Description: as §1

[17] = molecular target: T3, KRLLLLLLLL, Leu-substituted version of SP-C 11-20, spot 8 (human); test: peptide SPOT membrane, spot 8
T3 peptide: KRLLLLLLLL
Description: as §2

[18] = molecular target: T4, RLLLLLLLLL, Leu-substituted version of SP-C 12-21, spot 11 (human); test: peptide SPOT membrane, spot 11
T4 peptide: RLLLLLLLLL
Description: as §2

[19] = molecular target: T5, KRAAAAAAAA, Ala-substituted version of SP-C 11-20, spot 9 (human); test: peptide SPOT membrane, S-protein-HRP, ECL
T5 peptide: KRAAAAAAAA
Description: as §2

[20] = molecular target: T6, RAAAAAAAAA, Ala-substituted version of SP-C 12-21, spot 12 (human); test: peptide SPOT membrane, S-protein-HRP, ECL
T6 peptide: RAAAAAAAAA
Description: as §2

[21] = molecular target: B1; test: peptide SPOT membrane, S-protein-HRP, ECL
Description: as §2

[22] = molecular target: B8; test: cellulose-bound decamer SPOT membrane, S-protein-HRP, ECL
Description: as §1

[23] = molecular target: B6; test: as above
Description: as §1

[24] = molecular target: B4; test: as above
Description: as §1

[25] = molecular target: B10; test: cellulose-bound decamer SPOT membrane, 1 µg/ml protein, S-protein-HRP, ECL
Description: as §1

[26] = molecular target: B11; test: as above
Description: as §1

[27] = molecular target: B9; test: as above
Description: as §1

[28] = molecular target: B12; test: as above
Description: as §1

[29] = molecular target: B5; test: as above
Description: as §1

## B1
[1]
  binding result: no binding

## B2
[2]
  binding result: no binding (tested: 1 µg/ml)
[3]
  binding result: no binding
[4]
  binding result: no binding
[5]
  binding result: no binding
[6]
  binding result: no binding
[7]
  binding result: no binding
[8]
  binding result: no binding
[9]
  binding result: no binding
[10]
  binding result: no binding
[11]
  binding result: no binding

## B3
[12]
  binding result: binds
[13]
  binding result: binds
[14]
  binding result: binds
[15]
  binding result: binds
[16]
  binding result: binds

## B4
[1]
  binding result: no binding

## B5
[1]
  binding result: no binding

## B6
[1]
  binding result: no binding

## B7
[17]
  binding result: binds
[18]
  binding result: binds
[19]
  binding result: no binding (tested: 1 µg/ml)
[20]
  binding result: no binding (tested: 1 µg/ml)
[21]
  binding result: no binding (tested: 1 µg/ml)
[22]
  binding result: no binding (tested: 1 µg/ml)
[23]
  binding result: no binding (tested: 1 µg/ml)
[24]
  binding result: no binding (tested: 1 µg/ml)
[25]
  binding result: binds
[26]
  binding result: binds
[27]
  binding result: binds
[28]
  binding result: binds
[29]
  binding result: binds

## B8
[1]
  binding result: no binding

## B9
[1]
  binding result: no binding

## B10
[1]
  binding result: no binding

## B11
[1]
  binding result: no binding

## B12
[1]
  binding result: no binding
